B1: BDG38.075 (antibody, V domains shown)
VH: QMQLVESGGGVVQPGRSLRLSCAASGFAFRTYGMHWVRQAPGKGLEWVAVIWYDGSATHYADSVKGRFTITRDNSKNTLNLQMNSLRAEDTAVYYCVRAPQWYLSAEAFDLWGQGTMVTVSS
VL: SYVLTQPPSVSVAPGETATITCGGNLIGAYLVHWYQQKPGQAPVLVIYDDVDRPARIPERFSGSNSGNTATLTISRVEAGDEADYYCQVWDHDTNTMVFGGGTKLTVL
notes: IgG1
B2: BDG38.081 (antibody, V domains shown)
VH: B1 VH with Y53D, A57N, S105T
VL: B1 VL with E16Q, T19R, L26M, V44L, A55D, D93N, N95Q, T96Q
notes: IgG1
B3: BDG38.074 (antibody, V domains shown)
VH: B1 VH with Y53D, A57N, S105T
VL: B1 VL with E16Q, L26M, V44L, I47V, A55N, D93N, N95D, T96K
notes: also called BDG38.74
B4: BDG38.080 (antibody, V domains shown)
VH: B1 VH
VL: B1 VL with V51S, A55D, D93N, T96H
notes: IgG1
B5: BDG38.082 (antibody, V domains shown)
VH: B1 VH with Y53D, A57N, S105T
VL: B1 VL with L26M, A29G, A55D, T96Q, M97V
notes: IgG1
B6: BDG38.077 (antibody, V domains shown)
VH: B1 VH with R19T, A49G, S105T
VL: B1 VL with N25A, A29S, Y30R, V51S, A55S, S66I, R76D, D93S, T94S, M97Y
notes: IgG1
B7: BDG38.078 (antibody, V domains shown)
VH: B1 VH with A28E, V48L, A49G, A57N, A88V, S105T
VL: SYILTQPPSVSVAPGETATITCGGNLIGARLVHWYQQKPGQAPVLVIYDDSDRPSRIPERFSGSNIGNTATLTIERVEAGDEADYYCQVWDYYSDHMVFGGGTKLTVL
notes: IgG1
B8: BDG38.083 (antibody, V domains shown)
VH: B1 VH with R19T, A28E, A49G, Y53D, A57N, V97A, S105T
VL: B7 VL with E16Q, R30K, E75S, R76D, A79E, Y93S, H96T
notes: IgG1

Residue numbers refer to the chain shown, from its start.

T1 sequence (Q0PW92 entry or part of it): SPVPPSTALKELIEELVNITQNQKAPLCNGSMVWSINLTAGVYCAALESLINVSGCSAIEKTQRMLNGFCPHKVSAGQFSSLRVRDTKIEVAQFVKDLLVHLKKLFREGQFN

One assay addresses T1, recombinant cynomolgus monkey IL-13 (cynomolgus monkey, UniProt Q0PW92 21-132).
T1 construct: bought; also called rc-IL-13; cIL-13
Description: SPR. In general terms: SPR reads the build-up and loss of mass on a sensor chip optically.
By Kd is commonly meant the free concentration of one partner at which half of the binding sites on the other are occupied at equilibrium, for simple one-to-one binding. For orientation: koff means the first-order rate constant of dissociation. The kon is the rate constant with which the complex forms. As to B1, the Kd came to 0.454 nM, the koff worked out at 0.0156 s⁻¹ and the kon came to 3.45e+07 M⁻¹ s⁻¹.

Consider B2, for which the Kd was determined as 0.844 nM, the koff came to 0.00675 s⁻¹ and the kon was found to be 8e+06 M⁻¹ s⁻¹.

For another assay, the target named is T2, hTSLP-His (human, UniProt Q969D9 29-159, limits assumed). Description: cell-based or functional assay.
Consider B3, for which the “IC50, pSTAT5 in MUTZ-5 cell line” value was approximately 35 pM.

For another assay, the target named is T3, recombinant human IL-13 (human, UniProt P35225 35-146). Description: cell-based or functional assay.
T3 sequence (P35225 35-146 limits assumed): as the sequence (Q0PW92 entry or part of it) above, with S1G, K10R, V42M, N67S, R83H, V100L counted along it
For B1, the “HEK-IL-13 [nM] (IC50, STAT6 reporter)” value was found to be 0.0691 nM.

For B3, the “HEK-IL-13 [nM] (IC50, STAT6 reporter)” value came to 0.0241 nM.

As to B4, the “HEK-IL-13 [nM] (IC50, STAT6 reporter)” value came out at 0.0592 nM.

As to B2, the “HEK-IL-13 [nM] (IC50, STAT6 reporter)” value turned out to be 0.0483 nM.

B5: the “HEK-IL-13 [nM] (IC50, STAT6 reporter)” value was found to be 0.043 nM.

As to B6, the “HEK-IL-13 [nM] (IC50, STAT6 reporter)” value stood at 0.0505 nM.

On to B7, for which the “HEK-IL-13 [nM] (IC50, STAT6 reporter)” value was determined as 0.0508 nM.

In the case of B8, the “HEK-IL-13 [nM] (IC50, STAT6 reporter)” value is 0.0419 nM.

Another assay has as its target T2, hTSLP-His. Description: competition ELISA: antibody titrated and pre-incubated with 7 nM TSLP-His, then on a plate coated with 33.001 (Tezepelumab), anti-His detection; row head on the sheet reads EC50, unit from the axis.
A word on the IC50: it is the concentration at which inhibition is half-maximal. Turning to B4, the IC50 was 3.27 nM.

B7: the IC50 was 4.3 nM.

A further assay addresses T1, recombinant cynomolgus monkey IL-13. The experiment in a line: SPR. This is another data set of the same source.
Regarding B3, the Kd worked out at 0.733 nM, the koff stood at 0.00644 s⁻¹ and the kon worked out at 8.78e+06 M⁻¹ s⁻¹.

The target in the next assay is T4, cynomolgus monkey (cyno) TSLP (cynomolgus monkey, UniProt A0A7N9CAT7 29-159).
T4 construct: also called cTSLP; cynomolgus TSLP
T4 sequence (A0A7N9CAT7 entry or part of it): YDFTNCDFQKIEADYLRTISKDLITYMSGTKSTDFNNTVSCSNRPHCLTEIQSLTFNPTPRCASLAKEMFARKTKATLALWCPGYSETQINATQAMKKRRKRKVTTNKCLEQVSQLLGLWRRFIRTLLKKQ
Description: SPR.
For the molecule B3, binding was characterised by a dissociation constant (Kd) of 0.00416 nM, the koff is 4.6e-05 s⁻¹ and the on-rate (kon) turned out to be 1.11e+07 M⁻¹ s⁻¹.

A further assay addresses T2, hTSLP-His. Description: competition ELISA: antibody titrated and pre-incubated with 7 nM TSLP-His, then on a plate coated with 33.001 (Tezepelumab), anti-His detection; row head on the sheet reads EC50, unit from the axis. The source holds these as a separate data set. On the technique in general: An ELISA detects its analyte on a solid surface through an enzyme-linked reagent.
Turning to B2, the half-maximal inhibitory concentration (IC50) came out at 2.21 nM.

In turn, B5 had an IC50 of 2.73 nM.

With B8, the IC50 was 3.33 nM.

The next assay has as its target T5, human TSLP (human, UniProt Q969D9 29-159).
T5 construct: also called hTSLP; rhTSLP
Description: SPR (Biacore T200), antibody captured, hTSLP as analyte 0.231-5.926 nM.
B3 gave a Kd of 0.00334 nM, a koff of 5.05e-05 s⁻¹ and a kon of 1.51e+07 M⁻¹ s⁻¹.

Another assay addresses T5, human TSLP. The experiment in a line: SPR.
The molecule B3 registered a Kd of 0.00334 nM, a koff of 5.05e-05 s⁻¹ and a kon of 1.51e+07 M⁻¹ s⁻¹.

Another assay concerns the target T3, recombinant human IL-13. The experiment in a line: SPR.
As for B3, the Kd was 0.0295 nM, the koff was 0.000249 s⁻¹ and the kon was determined as 8.43e+06 M⁻¹ s⁻¹.

The target of the next assay is T4, cynomolgus monkey (cyno) TSLP. Description: SPR. This is another data set of the same source.
Turning to B1, the Kd was found to be 0.00279 nM, the koff came out at 7.59e-06 s⁻¹ and the kon is 2.72e+06 M⁻¹ s⁻¹.

The molecule B2 gave a Kd of 0.00487 nM, a koff of 4.36e-05 s⁻¹ and a kon of 8.96e+06 M⁻¹ s⁻¹.

The target in the next assay is T2, hTSLP-His. The experiment in a line: competition ELISA: antibody titrated and pre-incubated with 7 nM TSLP-His, then on a plate coated with 33.001 (Tezepelumab), anti-His detection; row head on the sheet reads EC50, unit from the axis. This is another data set of the same source.
Turning to B1, the IC50 was 3.39 nM.

For B3, the IC50 came to 3.66 nM.

In turn, B6 gave an IC50 of 8.48 nM.

In a further assay the target is T2, hTSLP-His. Description: cell-based or functional assay. The source holds these as a separate data set.
Turning to B1, the “IC50 [pM], STAT5 phosphorylation inhibition in MUTZ5 cells” value was 43.9 pM.

As to B3, the “IC50 [pM], STAT5 phosphorylation inhibition in MUTZ5 cells” value was determined as 46.7 pM.

Regarding B4, the “IC50 [pM], STAT5 phosphorylation inhibition in MUTZ5 cells” value is 34.3 pM.

On to B2, for which the “IC50 [pM], STAT5 phosphorylation inhibition in MUTZ5 cells” value was 38.7 pM.

B6: the “IC50 [pM], STAT5 phosphorylation inhibition in MUTZ5 cells” value was 304 pM.

Take B7: the “IC50 [pM], STAT5 phosphorylation inhibition in MUTZ5 cells” value came to 338 pM.

The next assay concerns the target T3, recombinant human IL-13. Description: SPR (Biacore T200), antibody captured, hIL-13 as analyte 0.35-5.93 nM.
B3: the Kd was found to be 0.0295 nM, the koff was 0.000249 s⁻¹ and the on-rate (kon) came out at 8.43e+06 M⁻¹ s⁻¹.

The target of another assay is T3, recombinant human IL-13. Description: SPR. This is another data set of the same source.
Regarding B1, the equilibrium dissociation constant (Kd) was determined as 0.0318 nM, the koff amounted to 0.000547 s⁻¹ and the kon is 1.72e+07 M⁻¹ s⁻¹.

For the molecule B4, the Kd amounted to 0.0716 nM, the koff is 0.00114 s⁻¹ and the kon stood at 1.59e+07 M⁻¹ s⁻¹.

As to B2, the Kd came out at 0.0509 nM, the koff amounted to 0.000872 s⁻¹ and the kon turned out to be 1.71e+07 M⁻¹ s⁻¹.

For the molecule B5, the Kd stood at 0.114 nM, the koff worked out at 0.000956 s⁻¹ and the kon amounted to 8.41e+06 M⁻¹ s⁻¹.

Consider B6, for which the Kd came to 0.0325 nM, the koff is 0.000539 s⁻¹ and the association rate constant (kon) was 1.66e+07 M⁻¹ s⁻¹.

As to B7, the Kd came to 0.0857 nM, the koff turned out to be 0.000203 s⁻¹ and the kon was 2.37e+06 M⁻¹ s⁻¹.

For the molecule B8, the Kd was determined as 0.0565 nM, the koff was determined as 0.000401 s⁻¹ and the kon is 7.09e+06 M⁻¹ s⁻¹.

The next assay deals with T5, human TSLP. Description: cell-based or functional assay.
Regarding B1, the “IC50 TARC” value was found to be 4.17 nM.

Turning to B3, the “IC50 TARC” value stood at 2.77 nM.

For the molecule B4, the “IC50 TARC” value was determined as 0.79 nM.

Turning to B2, the “IC50 TARC” value amounted to 5.93 nM.

B5: the “IC50 TARC” value is 1.58 nM.

B6: the “IC50 TARC” value worked out at 2.47 nM.

As to B7, the “IC50 TARC” value turned out to be 6.52 nM.

For the molecule B8, the “IC50 TARC” value amounted to 11.4 nM.

The target in another assay is T3, recombinant human IL-13. The experiment in a line: cell-based or functional assay. This is another data set of the same source.
For B1, the “IC50 CD23” value was found to be 0.0975 nM.

With B3, the “IC50 CD23” value was determined as 0.158 nM.

In the case of B4, the “IC50 CD23” value turned out to be 0.201 nM.

As for B2, the “IC50 CD23” value came out at 0.0339 nM.

In the case of B5, the “IC50 CD23” value was 0.0391 nM.

With B6, the “IC50 CD23” value was 0.0124 nM.

Regarding B7, the “IC50 CD23” value is 0.125 nM.

For B8, the “IC50 CD23” value was determined as 0.0215 nM.

In the next assay the target is T5, human TSLP. The experiment in a line: SPR. This is another data set of the same source.
B1 registered a Kd of 0.012 nM, a koff of 2.38e-05 s⁻¹ and a kon of 1.98e+06 M⁻¹ s⁻¹.

Regarding B4, binding was characterised by a dissociation constant (Kd) of 0.00722 nM, the koff was determined as 1.81e-05 s⁻¹ and the kon is 2.5e+06 M⁻¹ s⁻¹.

With B2, the Kd is 0.0692 nM, the koff was 0.000125 s⁻¹ and the kon was found to be 1.81e+06 M⁻¹ s⁻¹.

In turn, B5 gave a Kd of 0.0616 nM, a koff of 0.000158 s⁻¹ and a kon of 2.56e+06 M⁻¹ s⁻¹.

As to B6, the Kd amounted to 0.166 nM, the koff is 0.000144 s⁻¹ and the kon turned out to be 869000 M⁻¹ s⁻¹.

B7 yielded a Kd of 0.000231 nM, a koff of 2.95e-07 s⁻¹ and a kon of 1.28e+06 M⁻¹ s⁻¹.

The molecule B8 came in with a Kd of 0.0983 nM, a koff of 0.000241 s⁻¹ and a kon of 2.45e+06 M⁻¹ s⁻¹.

The target of a further assay is T2, hTSLP-His. The experiment in a line: competition ELISA, 7 nM TSLP-His pre-incubated with antibody; competitor Tezepelumab coated.
B1 came in with an IC50 of 3.94 nM.

With B3, the IC50 worked out at 3.66 nM.

Regarding B4, the IC50 was determined as 3.27 nM.

In the case of B2, the IC50 turned out to be 2.2 nM.

B5 registered an IC50 of 2.7 nM.

For the molecule B6, the half-inhibitory concentration (IC50) was 8.47 nM.

Turning to B7, the IC50 amounted to 4.3 nM.

The molecule B8 displayed an IC50 of 3.33 nM.

(Values after patent US20240059769A1 (BIOLOJIC DESIGN, published 2024).)
